Test results: patent US11945858B2, “Antibodies and antibody fragments against HNAV1.7 channel and their use in pain and cancer indications” (NATIONAL RESEARCH COUNCIL OF CANADA, priority 2018, dated 2024)
“Also recorded” adds a separate entry of the source.

Tests used:
hNav1.7 channels = hNav1.7 channels (Homo sapiens, UniProt Q15858, W1161R); experiment: Patch-clamp whole-cell recordings in hNav1.7-HEK293 cells; type: cell-based
[1] = system: OD1-evoked Nav1.7-mediated spontaneous pain behaviours; type: in vivo, mouse; conditions: 50 μg VHH
[2] = system: FC5DIIIDIR (extracellular loop DIII of the hNav1.7 channels grafted to FC5 scaffold); experiment: Phage ELISA on FC5DIIIDIR; type: binding, human
FC5DIE3IR = target: T1, FC5DIE3IR (Homo sapiens, UniProt Q15858); experiment: Surface Plasmon Resonance for VHH antibodies, immobilized FC5DIE3IR; type: binding; conditions: SPR
T1 construct: The supernatant was collected and loaded on a 5 ml MabSelect™ SuRe™ column; made in house; host or cells: CHO-3E7 (transient, pTT5 vector), purified from supernatant
Procedure: (§1) Surface Plasmon Resonance for VHH antibodies. For SPR experiments, IMAC-purified VHHs DI-D, DI-4, DI-16, DI-28 and DI-48 were passed through a Superdex 75 (GE Healthcare) column for SEC purification in HBS-EP+buffer (10 mM HEPES, pH 7.4, containing 150 mM NaCl, 3 mM EDTA and 0.05% P20), connected to an AKTAPurifier (GE Healthcare) at a flow rate of 1 ml/min. Monomeric VHH fractions were collected and protein concentration determined by measuring A280 measurement. Using a Biacore T200 instrument (GE Healthcare), approximately 500-1000 RUs of FC5DIE3IR, FC5 and an irrelevant VHH (2A3-H4) were immobilized on a CM5 Series S sensor chip (GE Healthcare) at pH 4.0 using standard amine coupling according to the manufacturer's instructions (GE Healthcare). […] Surfaces were regenerated by washing with a 120 s pulse of 10 mM glycine pH 1.5. Data were analyzed with Biacore T200 Software v 3.0 and affinities determined using steady state binding or a 1:1 binding model.

FC5 = experiment: Surface Plasmon Resonance for VHH antibodies, immobilized FC5; type: binding; conditions: SPR; 25 C
Procedure: as §1

VHH FC5 = experiment: Phage ELISA on VHH FC5; type: binding
Procedure: FIG. 25A Phages were rescued from individual colonies, selected from the fourth round of panning and grown overnight at 37° C. Wells of a Nunc microtiter plate were coated with FC5DIE3IR and FC5 proteins at 5 μg/ml in PBS. After blocking, 100 μl of phage supernatants (from clones A-H) were added to the respective wells followed by incubation for 1 h at room temperature and addition of anti-M13-HRP conjugate. Binding was detected with TMB substrate and A450 was measured using an ELISA plate reader. As shown, six positive clones (DI-A, DI-B, DI-C, DI-D, DI-E and DI-H), having a signal of at least 3× background, were identified by phage-ELISA.
Additional rounds (up to 3) of panning were performed by coating the ELISA plate with the same proteins and using the amplified phages after each round of panning as described above. After four rounds of panning, 77 randomly picked colonies were grown and subjected to monoclonal phage ELISA screening as described previously (Arbabi-Ghahroudi et al., 2009) except that 5 μg/ml of FC5DIE3IR and FC5 VHH (the negative control) were coated onto a microtiter plate. All positive clones specifically binding to FC5DIE3IR were sequenced and unique VHH sequences were selected for sub-cloning, large-scale expression, and purification. A total of 6 VHHs specific to FC5DIE3IR were isolated. […]

[3] = system: CFA-induced thermal hyperalgesia; experiment: Hargreaves Model of Hyperalgesia in rats; type: in vivo, rat; conditions: for Percentage of maximum possible effect (% MPE): 4 h (FIG. 27B)
Procedure: Hargreaves Model of Hyperalgesia in rats. Rats aged 4-6 weeks (weight range, 180-220 g) were used for intraplantar (ipl) administrations of various antibodies and evaluation of their efficacy in the Hargreaves model of inflammatory pain. Chronic inflammatory pain is induced by injecting a low volume (50 μl) of complete Freund's adjuvant (CFA; heat-killed M. tuberculosis—Sigma, St. Louis, Mo.—suspended in oil:saline 2:1 emulsion) into the right hind paw. The paw withdrawal latency in response to the application of a radiant stimulus onto the plantar surface of both right and left paw was measured using the plantar Analgesia Meter equipment for paw stimulation (IITC Life Science, Woodland Hills, Calif.). The time taken by the animal to respond by licking or flicking its paw is interpreted as positive response (paw withdrawal latency). After 48 h of the CFA injection, the baseline for latency paw withdrawal was measured and the mAbs tested. […] A cut-off time (20 sec) is established at the end of which the heat source shuts off automatically to avoid tissue damage. Animals were kept (randomized) one per cage and staff performing pain experiments are blinded to the content of injectable compounds. Percentage of maximum possible effect (% MPE) was calculated using the formula % MPE=(Test Latency−Baseline Latency)×100/(Cut-off−Baseline Latency).

2A3-H4 = experiment: Surface Plasmon Resonance for VHH antibodies, immobilized irrelevant VHH 2A3-H4; type: binding; conditions: SPR; 25 C
Procedure: as §1

[4] = −20 mV, after antibody application (1 μM)

FC5, sequence (as listed by the source): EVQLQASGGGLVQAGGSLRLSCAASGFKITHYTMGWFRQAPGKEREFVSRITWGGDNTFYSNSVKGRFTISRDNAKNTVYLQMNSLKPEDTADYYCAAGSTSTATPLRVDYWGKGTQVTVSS
VHH FC5, sequence (as listed by the source): as above

B1: DI-D: anti-hNav1.7 VHH from phage-displayed LAC-M naïve library; SEQ ID NO: 38 (protein)
VHH: QVKLEESGGGLVQPGGSLKLSCVASGFAFSSAPMDWVRKAPGKDVEWLSTIESDQDHTIYYANSVKGRFTISRDDVQNILYLQMNDLKIEDTATYYCQKRGEKKTRGQGTQVTVSS
modifications: DI-D
Reduction currents (%) (hNav1.7 channels; 1 μM): 11.7%±5.8 | Time constant of the block of the hNav1.7 currents (effect onset) (hNav1.7 channels; 1 μM): 113 ± 11 s | Voltage-dependence of activation (shift V1/2 activation) (hNav1.7 channels; 1 μM): −6.1±1.0 mV | Voltage-dependence of the steady-state fast inactivation (shift V1/2 inactivation) (hNav1.7 channels; 1 μM): −6.8±1.5 mV | hNav1.7 current remaining, % of control (hNav1.7 channels; 1 μM, 500 sec recording (FIG. 26B)): approx. 91% | Onset time of the effect (exponential fit of the current decay, T) (hNav1.7 channels; 1 μM, single time-course recording of the figure): 150 s | Reduction currents (%) (hNav1.7 channels; 2 μM): 15.0%±6.9 | Time constant of the block of the hNav1.7 currents (effect onset) (hNav1.7 channels; 2 μM): 200 ± 45 s | Reduction currents (%) (hNav1.7 channels; 3 μM): 24.1%±5.6 | Effect on hNav1.7 currents (in words) (hNav1.7 channels; example recordings, 1-3 μM): reduced hNav1.7 current in a dose dependent manner | Efficacy (degree of maximum inhibition) (hNav1.7 channels; resting/closed state): 27.4±5. % | Fast inactivation (time constant) (hNav1.7 channels; [4]): 1.29 ± 0.30 ms | Time-to-peak (hNav1.7 channels; [4]): 1.64 ± 0.37 ms | Effect on spontaneous pain behaviours evoked by OD1 (in words) [1]: reversed spontaneous pain behaviours | Time spent in pain behaviors (saline plus OD1 = 100%) ([1]; injected 60 minutes prior to OD1, 20 min after the injection): 44.33%±8.8 | Binding of the phage to FC5DIIIDIR (in words) [2]: did not bind | Binding to immobilized FC5DIE3IR (comment, in words) (FC5DIE3IR): clear binding; also recorded: binds specifically | Binding to immobilized FC5 (comment, in words) (FC5): trace amounts of binding; also recorded: Weak/residual binding | Binding of the phage to VHH FC5 (in words) (VHH FC5): did not bind | Latency paw withdrawal ([3]; 50 μg intraplantar, 4 h): 8.36 ± 0.53 s | Percentage of maximum possible effect (% MPE) ([3]; 50 μg intraplantar): 21.59%±4.05 | Latency paw withdrawal ([3]; 100 μg intraplantar, 1 h): 13.35 ± 0.44 s | Latency paw withdrawal ([3]; 100 μg intraplantar, 2 h): 11.40 ± 0.69 s | Latency paw withdrawal ([3]; 100 μg intraplantar, 4 h): 11.78 ± 0.50 s | Percentage of maximum possible effect (% MPE) ([3]; 100 μg intraplantar): 45.19%±4.40 | Binding to immobilized 2A3-H4 (comment, in words) (2A3-H4): No binding
